# In patent US20040091911, “Recombinant type II restriction endonucleases, MmeI and related endonucleases and methods for producing the same” (published 2004):
# T1: MmeI (Methylophilus methylotrophus)
# T1 chain: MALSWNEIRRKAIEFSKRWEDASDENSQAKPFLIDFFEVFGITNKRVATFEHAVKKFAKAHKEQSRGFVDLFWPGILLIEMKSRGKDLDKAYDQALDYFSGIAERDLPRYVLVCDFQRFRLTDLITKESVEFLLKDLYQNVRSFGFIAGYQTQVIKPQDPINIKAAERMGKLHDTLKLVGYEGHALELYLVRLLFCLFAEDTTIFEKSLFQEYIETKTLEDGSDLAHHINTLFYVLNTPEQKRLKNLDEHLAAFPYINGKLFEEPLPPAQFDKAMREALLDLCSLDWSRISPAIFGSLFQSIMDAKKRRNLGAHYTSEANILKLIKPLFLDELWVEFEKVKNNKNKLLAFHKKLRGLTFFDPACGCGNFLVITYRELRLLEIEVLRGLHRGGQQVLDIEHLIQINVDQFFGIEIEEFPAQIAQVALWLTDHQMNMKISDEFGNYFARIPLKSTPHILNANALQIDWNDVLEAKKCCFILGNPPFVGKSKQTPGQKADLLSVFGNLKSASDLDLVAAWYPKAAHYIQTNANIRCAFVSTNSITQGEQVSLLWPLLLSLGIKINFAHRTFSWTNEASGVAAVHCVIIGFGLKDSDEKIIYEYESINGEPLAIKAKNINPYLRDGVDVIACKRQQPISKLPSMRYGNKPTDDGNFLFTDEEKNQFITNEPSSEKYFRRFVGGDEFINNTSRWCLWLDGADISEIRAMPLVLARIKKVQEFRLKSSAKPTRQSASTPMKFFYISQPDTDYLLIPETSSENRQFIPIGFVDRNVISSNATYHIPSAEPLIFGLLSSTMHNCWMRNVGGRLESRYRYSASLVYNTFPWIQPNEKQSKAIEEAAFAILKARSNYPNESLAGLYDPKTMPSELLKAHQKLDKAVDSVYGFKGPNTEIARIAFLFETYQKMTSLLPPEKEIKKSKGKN
# B1: oligo1+oligo2 unmethylated (dsDNA)
# DNA 1: GTTTGAAGACTCCGACGCGATGGCCAGCGATCGGCGCCTCAGCTTTTG
# DNA 2: CAAAAGCTGAGGCGCCGATCGCTGGCCATCGCGTCGGAGTCTTCAAAC
# B2: oligo1+oligo4 bottom methylated (dsDNA)
# DNA 1: B1 DNA 1
# DNA 2: B1 DNA 2
# modifications: 6mA in bottom strand at GTCGG(6mA) (position 38)
# Assays:
# MmeI [1] = target: T1, MmeI; assay: methyltransferase activity; 3H-SAM incorporation; settings: preparation used with the oligos not specified; label: 5'-FAM both strands
# MmeI [2] = target: T1, MmeI; assay: methyltransferase activity on top strand; 3H-SAM incorporation; settings: preparation used with the oligos not specified; label: 5'-FAM both strands
Binder,activity (MmeI [1]) [fold over background],activity (MmeI [2]) [fold over background]
B1,> 10,
B2,,> 10
